Here are results for 1 substance from US20060199247A1.

In this experiment the target is beef heart phosphodiesterase (Boeringer Mannheim) (beef).

On to calmodulin, for which the phosphodiesterase activity came to 6.5 fold.
